US20220048996A1 (F STAR BETA, published 2022)

Tests used:
[1] = target: human CD137 expressed on DO11.10 cells (DO11.10-hCD137) (human, UniProt Q07011 24-255); experiment: cell-based or functional assay
[2] = target: T1, human OX40 expressed on DO11.10 cells (DO11.10-hOX40) (human, UniProt P43489 29-277); experiment: cell-based or functional assay
T1 sequence: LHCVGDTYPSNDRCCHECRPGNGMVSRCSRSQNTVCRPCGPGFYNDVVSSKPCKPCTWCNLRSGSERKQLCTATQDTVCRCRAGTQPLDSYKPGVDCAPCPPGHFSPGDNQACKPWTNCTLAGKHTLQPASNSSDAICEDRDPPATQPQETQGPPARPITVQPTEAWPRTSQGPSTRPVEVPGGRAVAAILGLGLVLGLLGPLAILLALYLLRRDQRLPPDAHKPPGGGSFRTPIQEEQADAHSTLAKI

[3] = target: T2, cynomolgus CD137 expressed on DO11.10 cells (DO11.10-cCD137) (cynomolgus monkey, UniProt Q07011 24-255 (human entry)); experiment: flow cytometry on DO11.10 cells expressing the target
T2 chain: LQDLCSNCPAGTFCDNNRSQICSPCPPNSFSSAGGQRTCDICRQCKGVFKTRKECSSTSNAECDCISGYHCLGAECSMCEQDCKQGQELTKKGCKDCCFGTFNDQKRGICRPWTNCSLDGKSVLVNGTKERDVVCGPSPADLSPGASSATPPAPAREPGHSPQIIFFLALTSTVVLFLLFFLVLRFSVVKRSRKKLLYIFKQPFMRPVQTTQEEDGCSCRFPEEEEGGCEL

[4] = target: T3, cynomolgus OX40 expressed on DO11.10 cells (DO11.10-cOX40) (cynomolgus, UniProt P43489 29-277 (human entry)); experiment: as above
T3 chain: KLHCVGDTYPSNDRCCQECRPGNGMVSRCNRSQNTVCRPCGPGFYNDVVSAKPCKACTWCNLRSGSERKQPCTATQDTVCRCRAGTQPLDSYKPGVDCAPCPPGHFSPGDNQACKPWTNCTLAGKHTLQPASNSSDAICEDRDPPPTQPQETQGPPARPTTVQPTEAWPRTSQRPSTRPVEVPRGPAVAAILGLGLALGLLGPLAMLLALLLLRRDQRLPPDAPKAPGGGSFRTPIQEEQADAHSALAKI

[5] = target: T4, hFcγR1 (R&D Systems 1257-FC-050/CF) (human, UniProt P12314 16-288); experiment: SPR, antibody 100 nM on CD137-his chip co-injected with FcγR 500 nM
T4 construct: Bought; also called FcγRI
Procedure: (§1) Binding was tested on a Biacore 3000 instrument (GE Healthcare). Human OX40 (BPS Bioscience cat no 71310) and human CD137 (produced in house) biotinylated his-tagged antigens were coated onto an SA chip (GE Healthcare cat no BR100398) at 2 μM concentration. Human OX40 and human CD137 were coated on separate flow cells, while another flow cell was left blank for background subtraction. Regeneration conditions were determined to be 12 μl aqueous 10 mM glycine-HCl at pH2.0 at 20 μl/min flow rate. Antibodies (see Table 8) and human FcγRs (see Table 8) were diluted to 100 nM (antibodies) or 500 nM (human FcγRs) in HBS-P (0.01 M HEPES pH 7.4, 0.15 M NaCl, 0.005% v/v Surfactant P20, GE Healthcare, BR-1003-68) and co-injected at 20 μl/min flow rate and the dissociation was followed for 5 min.
(§2) Data analysis was performed with BiaEvaluation software version 3.2 RC1 by referencing against the blank flow cell and aligning the curves after the association of the antibody. Values for binding response at the end of the association phase were generated by subtracting the […] to normalize the effect of the antibody binding to the OX40 and CD137 receptors.

[6] = target: T5, hFcγR2a (R&D Systems 1330-CD-050/CF) (human, UniProt P12318 36-218, limits assumed); experiment: as above
T5 construct: Bought; also called FcγRIIa
T5 sequence (looked up): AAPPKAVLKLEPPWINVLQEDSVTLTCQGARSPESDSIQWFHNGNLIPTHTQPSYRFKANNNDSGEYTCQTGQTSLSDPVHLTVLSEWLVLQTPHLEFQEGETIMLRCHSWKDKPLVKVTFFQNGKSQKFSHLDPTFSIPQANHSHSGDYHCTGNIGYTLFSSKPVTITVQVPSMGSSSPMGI
Procedure: as §1, §2

[7] = target: T6, hFcγR2b (R&D Systems 1460-CD-050/CF) (human, UniProt P31994 46-217, limits assumed); experiment: as above
T6 construct: Bought; also called FcγRIIb
T6 sequence (looked up): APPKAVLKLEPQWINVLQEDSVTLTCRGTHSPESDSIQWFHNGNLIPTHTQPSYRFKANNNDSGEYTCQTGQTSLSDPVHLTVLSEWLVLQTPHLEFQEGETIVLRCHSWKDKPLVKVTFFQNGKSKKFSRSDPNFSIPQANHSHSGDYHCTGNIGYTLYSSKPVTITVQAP
Procedure: as §1, §2

[8] = target: T7, hFcγR3a (R&D Systems 4325-FC-050/CF) (human, UniProt P08637 17-208); experiment: as above
T7 construct: Bought; In the ADCC bioassay FcγRIIIa stood on engineered Jurkat cells; also called FcγRIIIa
Procedure: as §1, §2

T4 sequence (P12314 16-288 limits assumed): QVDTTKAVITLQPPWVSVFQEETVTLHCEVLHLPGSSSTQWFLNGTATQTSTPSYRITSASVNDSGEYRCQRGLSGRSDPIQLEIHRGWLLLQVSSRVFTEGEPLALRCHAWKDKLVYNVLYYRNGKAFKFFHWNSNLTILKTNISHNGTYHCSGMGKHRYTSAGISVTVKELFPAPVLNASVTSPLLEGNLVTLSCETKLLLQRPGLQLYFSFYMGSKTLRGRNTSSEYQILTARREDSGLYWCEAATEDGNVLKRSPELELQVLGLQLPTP
human CD137 expressed on DO11.10 cells (DO11.10-hCD137), sequence (Q07011 24-255): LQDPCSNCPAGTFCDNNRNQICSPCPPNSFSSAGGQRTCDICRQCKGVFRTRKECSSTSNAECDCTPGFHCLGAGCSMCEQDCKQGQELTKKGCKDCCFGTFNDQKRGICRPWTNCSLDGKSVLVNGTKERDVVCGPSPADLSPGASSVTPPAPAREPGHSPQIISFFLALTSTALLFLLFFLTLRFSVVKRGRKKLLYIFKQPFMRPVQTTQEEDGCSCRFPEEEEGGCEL
T7 sequence (P08637 17-208 limits assumed): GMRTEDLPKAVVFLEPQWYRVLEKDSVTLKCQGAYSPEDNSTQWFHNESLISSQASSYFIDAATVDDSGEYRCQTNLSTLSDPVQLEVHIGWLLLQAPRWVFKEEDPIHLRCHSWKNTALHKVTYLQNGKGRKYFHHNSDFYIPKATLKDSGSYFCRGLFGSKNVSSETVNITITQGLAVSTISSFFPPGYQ

- EC50 of mIL-2 release, DO11.10-hCD137 assay, crosslinked [1]: 4700 pM
- Emax of mIL-2 release, DO11.10-hCD137 assay, crosslinked [1]: 16300 pg/mL
- SEA assay (PBMC), hIL-2 max response, crosslinked [2]: 33800 pg/mL
- SEA assay (PBMC), hIL-2 max response, no crosslinker [2]: 35100 pg/mL
- SEA assay (PBMC), hIL-2 release EC50, crosslinked [2]: 100 pM
- SEA assay (PBMC), hIL-2 release EC50, no crosslinker [2]: 140 pM
- EC50 [3]: 80.3 pM
- EC50 [4]: 380 pM
- binding response at end of association phase of FcγR [5]: 246 RU
- decrease of binding response at end of dissociation phase of FcγR [5]: 367 RU
- binding response at end of association phase of FcγR [6]: 10.9 RU
- binding response at end of association phase of FcγR [7]: 9 RU
- binding response at end of association phase of FcγR [8]: 17.3 RU
B1: FS20-22-49AA/FS30-10-16 (bispecific antibody, human IgG1, kappa, L234A L235A)
heavy: EVQLLESGGGLVQPGGSLRLSCAASGFTFSSYDMSWVRQAPGKGLEWVSDIDPTGSKTDYADSVKGRFTISRDNSKNTLYLQMNSLRAEDTAVYYCARDLLVYGFDYWGQGTLVTVSSASTKGPSVFPLAPSSKSTSGGTAALGCLVKDYFPEPVTVSWNSGALTSGVHTFPAVLQSSGLYSLSSVVTVPSSSLGTQTYICNVNHKPSNTKVDKKVEPKSCDKTHTCPPCPAPEAAGGPSVFLFPPKPKDTLMISRTPEVTCVVVDVSHEDPEVKFNWYVDGVEVHNAKTKPREEQYNSTYRVVSVLTVLHQDWLNGKEYKCKVSNKALPAPIEKTISKAKGQPREPQVYTLPPSRDEYWDQEVSLTCLVKGFYPSDIAVEWESNGDEQFAYKTTPPVLDSDGSFFLYSKLTVDQYRWNPADYFSCSVMHEALHNHYTQKSLSLSPG
light: EIVLTQSPGTLSLSPGERATLSCRASQSVSSSYLAWYQQKPGQAPRLLIYGASSRATGIPDRFSGSGSGTDFTLTISRLEPEDFAVYYCQQSYSYPVTFGQGTKVEIKRTVAAPSVFIFPPSDEQLKSGTASVVCLLNNFYPREAKVQWKVDNALQSGNSQESVTEQDSKDSTYSLSSTLTLSKADYEKHKVYACEVTHQGLSSPVTKSFNRGEC
notes: IgG1 with LALA; also called OX40/CD137 mAb^2; copies: 2 + 2
